Results on five molecules are retold here after US20210070883A1 (AQUALUNG THERAPEUTICS, published 2021).

The target in test [1] is T1, human nicotinamide phosphoribosyltransferase (NAMPT) (human, UniProt P43490 1-491).
T1 construct: Recombinant hNAMPT was bought (MBL International); In the Western blots the protein was recombinant or in HPAEC lysate; also called hNAMPT; recombinant hNAMPT
Put plainly: Western blot on recombinant hNAMPT and HPAEC cell lysate, exposures of 30 sec and 5 min. (In general: Immunoblotting shows a protein as a band on a membrane.)

For a further test, the target named is T2, mouse NAMPT (mouse, UniProt Q99KQ4 1-491, limits assumed).
T2 construct: Recombinant mNAMPT; also called mNAMPT; recombinant mouse NAMPT
The test is described as follows: Western blot on recombinant mNAMPT and mouse lung lysates (SB, LPS, VILI), exposures of 30 sec and 5 min.

In test [2] the target is T1, human nicotinamide …. The test is described as follows: told with the Pepscan epitope mapping; assay for the dimer not described.

T2 sequence (Q99KQ4 whole entry): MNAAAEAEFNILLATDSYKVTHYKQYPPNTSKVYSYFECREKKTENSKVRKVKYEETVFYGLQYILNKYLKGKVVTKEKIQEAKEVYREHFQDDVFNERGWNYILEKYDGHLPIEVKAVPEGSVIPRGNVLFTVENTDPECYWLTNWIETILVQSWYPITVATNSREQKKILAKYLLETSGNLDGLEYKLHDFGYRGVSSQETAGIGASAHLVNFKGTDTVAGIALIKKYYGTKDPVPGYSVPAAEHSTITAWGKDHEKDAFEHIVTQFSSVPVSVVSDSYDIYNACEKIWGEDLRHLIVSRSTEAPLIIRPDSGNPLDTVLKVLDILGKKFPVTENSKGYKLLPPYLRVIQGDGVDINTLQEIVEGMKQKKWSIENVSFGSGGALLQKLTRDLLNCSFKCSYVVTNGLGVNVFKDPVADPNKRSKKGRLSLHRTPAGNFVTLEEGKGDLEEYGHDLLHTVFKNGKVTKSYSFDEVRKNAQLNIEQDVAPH
T1 sequence (P43490 whole entry): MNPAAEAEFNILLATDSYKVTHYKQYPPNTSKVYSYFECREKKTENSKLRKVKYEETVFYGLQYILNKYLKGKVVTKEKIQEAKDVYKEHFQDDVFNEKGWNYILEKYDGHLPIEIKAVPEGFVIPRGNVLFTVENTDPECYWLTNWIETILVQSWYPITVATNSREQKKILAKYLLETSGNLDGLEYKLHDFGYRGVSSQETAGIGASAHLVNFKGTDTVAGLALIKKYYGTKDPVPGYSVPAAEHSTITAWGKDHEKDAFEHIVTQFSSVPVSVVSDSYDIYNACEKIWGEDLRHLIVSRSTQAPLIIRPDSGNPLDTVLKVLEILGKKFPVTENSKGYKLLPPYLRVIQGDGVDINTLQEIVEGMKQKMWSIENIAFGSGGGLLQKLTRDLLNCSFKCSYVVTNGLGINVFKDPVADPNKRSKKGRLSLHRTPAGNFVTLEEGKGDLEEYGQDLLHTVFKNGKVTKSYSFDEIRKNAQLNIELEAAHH

B1: murine anti-hNAMPT antibody AL-303 (antibody, V domains shown)
VH: QVQLQQPGADLVKPGASVKLSCKASGYTFTSYWMQWVKQRPGQGLEWIGEIDPSNSYTNYNQKFRGKATLTVDPSSSTAYMQLSSLTSEDSAVYYCARGGYWGQGTTLTVSS
VL: DIVMTQAAFSNPVTLGTSASISCRSSKSLLHSNGITYLYWYLQKPGQSPQLLIYQMSNLASGVPDRFSSSGSGTDFTLRISRVEAEDVGVYYCVQNLELPYTFGGGTKLEIK
notes: Murine monoclonal antibody
Turning to B1, the binding result (in test [1]; with mouse NAMPT) was “binds” in each case.

B2: murine anti-NAMPT antibody AL-310 (antibody, V domains shown)
VH: QVQLQQSGAESVMPGASVKLSCKASGYTFTSYWMHWVKQRPGQGLEWIGEIDPSDSYTNYNQKFKGKSTLTVDKSSSTAYMQLSSLTSEDSAVYYCAKSNYVVPWYFDVWGTGTTVTVSS
VL: DIVMTQAAFSNPVTLGTSASISCRSSKSLLHSNGITYLYWYLQKPGQSPQLLIYQMSNLASGVPDRFSSSGSGTDFTLRISRVEAEDVGVYYCAQNLELPWTFGGGTKLEIK
notes: Murine monoclonal antibody; also called AL-310mAb
For the molecule B2, the binding result is “binds” in test [1] and “no binding” in the test with mouse NAMPT.

B3: murine anti-NAMPT antibody AL-304 (antibody, V domains shown)
VH: QVQLQQPGADLVKPGASVKLSCKASGYTFTSYWMQWVKQRPGQGLEWIGEIDPSNSYTNYNQKFRGKATLTVDPSSSTAYMQLSSLTSEDSAVYYCARGGYWGQGTTLTVSS
VL: DIVMTQAAFSNPVTLGTSASISCRSSKSLLHSNGITYLYWYLQKPGQSPQLLIYQMSNLASGVPDRFSSSGSGTDFTLRISRVEAEDVGVYYCVQNLELPYTFGGGTKLEIK
In the case of B3, the binding result (in test [1]; with mouse NAMPT) was “binds” throughout.

B4: 1076 humanized anti-hNAMPT antibody K-1076 (antibody, V domains shown)
VH: QVQLVQSGAEVKKPGASVKVSCKASGYTFTSYWMQWVRQAPGQGLEWMGEIDPSNSYTNYNQKFRGRVTMTTDTSTSTAYMELRSLRSDDTAVYYCARGGYWGQGTTVTVSS
VL: DIVMTQSPLSLPVTPGEPASISCRSSKSLLHSQGITYLYWYLQKPGQSPQLLIYQLSNRASGVPDRFSGSGSGTDFTLKISRVEAEDVGVYYCVQNLELPYTFGGGTKLEIK
notes: also called Ab-1076-HC2-LC5
Consider B4, for which the binding result in test [2] is “binds”.

B5: 1093 humanized anti-hNAMPT antibody NN-1093 (antibody, V domains shown)
VH: QVQLVQSGAEVTKPGASVKVSCKASGYTFTSYWMHWVRQAPGQGLEWVGEIDPSDSYTNYNQKFKGRVTLTRDTSTTTVYMELSSLRSEDTAVYYCAKSNYVVPWYFDVWGQGTTVTVSS
VL: EIVLTQSPATLSLSPGERATLSCRSSKSLLHSNGITYLYWYQQKPGQAPRLLIYQMSNLASGIPARFSGSGSGTDFTLTISSLEPEDFAVYYCAQNLELPWTFGGGTKLEIK
notes: Humanized from AL-310; it was detected with a goat anti-human antibody
Turning to B5, the binding result in test [2] is “binds”.
